Fewer inactive variants are shown than the library holds.
B1: TPR 5TU (parent)
chain: GGAUCUUCUCGAUCUAACAAAAAAGACAAAUCUGCCACAAAGCUUGAGAGCAUCUUCGGAUGCAGAGGCGGCAGCCUUCGGUGGCGCGAUAGCGCCAACGUUCUCAACUAUGACACGCAAAACGCGUGCUCCGUUGAAUGGAGUUUAUCAUG

Variants of: B1
Assay: polymerase ribozyme fitness, log enrichment relative to wild type (log ratio); higher = more active; in vitro selection for triplet polymerase activity
Method in brief: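 Fitness measures genotype enrichment against wild-type enrichment on a logarithmic scale, with inverse-variance-weighted averaging of replicates. The logarithm is base 2, and genotypes were kept only with ≥10 input reads and ≥1 read per output in Illumina sequencing. The sequenced libraries came from one triplicate in vitro selection round, including frozen incubation at −7 °C, of PCR-built, transcribed mutant libraries of each subunit of a heterodimeric triplet polymerase ribozyme.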

Variant | polymerase ribozyme fitness (log ratio)
GGAUCUUCUCGAGCUAACACAAAAGACAAAUCUGCCACAAAGCUUGAGAGCAUCGUCGGAUGCAGAGGCGGCAGCCUUCGGUGGCGCGAGAGCGGCAACGUUCUAAACUAUGACAGGCAAAACACGUGCUCCGUUGAAUGGAGUUUAUCAUG | ≤ -4.2
GGAUCUUCUCGACCUAACAAAAAAGACAAAUCUGCCACAAAGCUUGAGAGCAUCUGCGGAUGCAGAGGCGGCAGCCUUCGGUGGCGCGAUAGCGCCAACGUUCUCAACUAUGACGCGCAAAACGCGUGCUCCGUUGAAUGGAGUUUAUCAUG | -2.32
GGAUCUUCUCGACCUAACAAAAAAGACAAAUCUGCCACAAAGCUUGAGAGCAACUUCGGAUGCAGAGGCGGCAGCCUUCGGUGGCGCGAUUGCGCCAACGUUCUCAUCUAUGACACGCAAAACGCGUGCUCCGUUGAAUGGAGUUUAUCAUG | ≤ -4.2
GGAUCUUCUCGAGCUAACAAUCAAGACAAAUCUGCCACAAAGCUUGAGAGCAUCUUCGGAUGCAGAGGCGGCAGCCUUCGGGGGCGCGAUAUCGCCACCGUUCUCAACUAUGACAUGCAAAACGCGUGCUCCGUUGAAUGGAGUUUAUCAUG | -1.59
GGAUCUUCUCGACCUAACAAAAAAGACAAAUCUGCCACAAAGCUUGAGAGCAUCUUCGGAUGCAGAGGCGGCAGCCUUCGGUGGCGCGAUAGCACCAACGUUCUCAACUAUGACACGCAAAACGCGUGCUCCGUUGAAUGUAGUUUAUCAUG | 0.369
GGAUCUUCUCGACCUAACAAAAAAGACAAAUCUGCCACAAAGCUUGAGAGCAUCUUCGGAUGCAGAGGCGGCAGCCUUCGGUGGCGCGAUAGAGCAAACGUUCUCAACUAUGACACGCAAAACGCGUGCUCCGUUGAAUGGAGUUUAUCAUG | -3.63
GGAUCUUCUCGACCUAACAAAAAAGACAAAUCUGCCACAAAGCUUGAGAGCAUCUUCGGAGGCAGAGGCGGCAGCCUUCGGUGACGCGAUGGCGCCAACGUUCUCAACUAUGACACGCAAAACGCGUGCUCCGUUGAAUGGAGUUUAUCAUG | -3.86
GGAUCUUCUCGACCUAACAAAAAAGACAAAUCUGCCACAAAGCUUGAGAGCAGCUUCGGAUGCAGAGGCGGCAGCCUUCGGUGGCGAGAUAGCGCCAACGUUCUCAACUAUGACACGCAUAACGCGUGCUCCGUUGAAUGGUGUUAAUCAUG | ≤ -4.2
GGAUCUUCUCGACCUAACAAAAAAGACAAAUCUGCCACAAAGCUUGAGAGCAUCUUCGGAUGCAGAGGCGGCAGCCUUCGGUGGCGCGAUAGCACCAACGUUCUCAACUAUGACACGCAAAACGCGUGCUCCGUUGAAUGGAGUUUAUCAUG | -0.431
GGAUCUUCUCGACCUAACAAAAAAGACAAAUCUGCCACAAAGCUUGAGAGCAUCUUCGGAUGCAGAGGCGGCAGCCUUCGGUGGCGCGAUAGCCCCAACGUUCUCAACUAUGACACGCAAAACGCGUGCUCCGUUGAAUGGAGUUUAUCAUG | -0.0586
GGAUCUUCUCGAGCUAGCAAAAAAGACAAAUCUGCCACAAAGCUUGAGAGCAUCUUCGGAUGCAGAGGCGGCAGCCUUCGGUGGCGCGAUAGCGCAAACGUUCUCAACUAUGACACGCAAAACGCGUGCUCCGUUGAAUGGACUUUAUCAUG | -4.19
GGAUCUUCUCGAGCUAACUAAAAAGACAAAUCUGCCACAAAGCUUGAGUGCAUGUUCGGAUGCAGAGGCGGCAGCCUUCGGUGGCGCGGUAGUGCCAACGUUCUCAACUAUGACACGCAAAACGCGCGCUCCGUUGAAUGGAGUUUAUCAUG | ≤ -4.2
GGAUCUUCUCGAGCUAACAUAAAAGACAAAUCUGCCACAAAGCUUGAGAGCAUCUUAGGAUGCAGAGGCGGCAGCCUUCGGUGGCGCGAUAGCGAAAACGUUCUCAACUAUGACACGCAAAACGCGUGCCCCGUUGAAUGGAGUUUAUCAUG | ≤ -4.2
GGAUCUUCUCGAGCUAACAAUAAAGACAAAUGUGCCACAAAGCUUGAGAGCAUCUUCGGAUGCAGAGGCGGCUGCCUACGGUGGCGAGAUAGCGCCAACGUUCUCAACUAUGACACGAAAAACGCGUGCUCCGUUGAAUGGAGUUUAUCAUG | ≤ -4.2
GGAUCUUCUCGACCUAACAAAAAAGACAAAUCUGCCACAAAGCAUGAGAGCAUCAUCGUAUGCAGAGGCGGCAGCCUUCGGUGACGCGAUAGCGCCAACGUUCUCAACUAUGACACGCAAAACGCGUGCUCCGUUGAAUGGAGUUUAUCCUG | ≤ -4.2
GGAUCUUCUCGACCUAACAAAAAAGACAAAUCUGCCACAAAGCUGGAGAGCAUCUUCGGAUGCAGAGGCGGCAGCCUUCGAUGGUGCGAUAGCGCCAACGUUCUCAACUAUGACACGUAAAACGCAUGCUCCGUUGAAUGGAGUUUAUCAUG | ≤ -4.2
GGAUCUUCUCGACCUAACAAAAAAGACAAAUCUGCCACAAAGCUUGAGAGCAUCUUCCGAUGCAGAAGCGGCAGCCUUCGGUGGCGCGAUAGCCCCAACGUUCUCAACUAUGACACGCAAAACGCGUGCUCCGUUGAAUGGAGUUUAUCAUG | ≤ -4.2
GGAUCUUCUCGACCUAACAAAAAAGACAAAUCUGCCACAAAGCUUGAGAGCAUCUUCGGAUGCAGAGGCGGCAGCCUUCGGUGGCGAGAUAGCGCCAACGUUCUCAACUAUGACACGCAAAACGCGUGCUCCGUUGAAUGGAGUUUAUCAUG | ≤ -4.2
GGAUCUUCUCGACCUAACAAAAAAGACAAAUCUGCCACAAAGCUUGAGAGCAUCUUCGGAUGCAGAGGAGGCAGCCUUCGGUGGCGGGAUAGCGCCUACGUUCUCAACUAUGACACGCAAAACGCGUGCUCCGUUGAAUGGAGUUUUUCAUG | ≤ -4.2

Variant | polymerase ribozyme fitness (log ratio)
GGAUCUUCUCGACCUAACAAAAAAGACAAAUCUGCCACAAAGCAUGAGAGCAUCUACGGAUGCAGAGGCGGCAGCCUUUGGUGGCGCGAUAGGGUCAACGUUCUCAACUAUGACCCGCAAAACGCGUGCUCCGUUGAAUGUAGUUUAUCAUG | ≤ -4.2
GGAUCUUCUCGAGCUAACGAAAAACACAAAUCUGCCACAAAGCUUGAGAGCAUCUUCGGAUGCAGAGGCGGCAGCCUUAGGUGGCGCGAUAGCGCCAACGUUCUCAACUAUGACACGCAAAACGCGUGCUGCGUUGAAUGGAGUGUAUCAUG | ≤ -4.2
GGAUCUUCUCGACCUAACAAAAAAGACAAAUCUGCCACAAAGCUUGAGAGCAUCUUCGGAUGCAGAGGCGGCAGCCUGCGGUGGAGCGAUAGCGCCAACGUUCUCAACUAUGACAUGCAAAACGCGUGCUCCGUUGAAUGGAGUUUAUCAUG | ≤ -4.2
GGAUCUUCUCGACCUAACAAAAAAGACAAAUCUGCCACAAAGCUUGAGAGCAUCUUCGGAUGCAGAGGCGGCAGCCUUCGGUGGCGCGAUAGGGCCAAAGUUCUCAACUAUGACACGCAAAACGCGCGCUCCGUUGAAUGGAGUUUAUCAUG | ≤ -4.2
GGAUCUUCUCGAGCUAUCAAGGAAGACAAAUCUGCCACAAAGCUUGAGACCAUCUUCGAAUGCAGAGGCCGUAGCCUUCGGUGGCGCGAUAGCGCCAACGUUCUCAACUAUGACACGCAAAACGGGUGCUCCGUUGAAUGGAGUUUAUCAUG | ≤ -4.2
GGAUCUUCUCGACCUAACAAAAAAGACAAAUCAGCCACAAAGCUUGAGAGCAUAUUCGGAUGCAGAGGCGGCAGCCUUCGGUGGCGCGAUAGCGGCACAGUUCUCAACUAUGACACGCAAAACGCGUGCUCCGUUGAAUGGAGUUUAUCGUG | ≤ -4.2
GGAUCUUCUCGACCUAACAAAAAAGACAAAUCUGCCACAAAGCUUGAGAGCAUCUUCGGAUGCAGAGGCGGCAGCCUUCGGUGGCGCGAGAGCGCCAACGUUCUCAACUAUGACAAGCAAAACGCGUGCUCCGUUGAAUGGAGUUUAUCAUG | -4.13
GGAUCUUCUCGACCUAACAAAAAAGACAAAUCUGCCACAAAGCUUGAGAGCAUCUUCAGAUGCAGAGGCGGCAGCCUUCGGUGGCGCUAAAGCGCCAACGUGCUCAACUAUGACACGCAAAACGCGUGCUCCGUUGAAUGGAGUUUAUCAUG | ≤ -4.2
GGAUCUUCUCGACCUAACAAAAAAGACAAAUCUGCCACAAAGCUUGAGAGCAUCUUCGGAUGCAGAGGCGGCAGCCUUCGGUGGCGCGAUAGCGCCAACGUUCGCAACUAUGACACGCAAAACGCGUGCUCCGUUGAAUGGAGUUUAUCAUG | -1.57
GGAUCUUCUCGAGCUAACAAAAACGACAAAUCUGACACAAAGCUUGAGUGCAUCUUCGGAUGCAGAGGCGGCAGCGUUCGGUGGCGCGAUCGCGCCAACGUUCUCAACUAUGACACGCAAAACGCGUGCUCCGUUGAAUGGAGUUUAUCAUG | ≤ -4.2
GGAUCUUCUCGACCUAACAAAAAAGACAAAUCUGCCACAAAGCUUGAGAGCAUCUUCGGAUGCAGAGGCGGCAGCCUUCGGUCGCGCGAUAGCGCUAACGUUCUCAACUAUGAUACGCAAAACGCGUGCUCCGUUGAAUGGAGUUUAUCAUG | -4.13
GGAUCUUCUCGAGCUUACAAAAAAGACAAAUCUGCCACAAAGCUUGAGAGCAUCUUCGGAUGCAGAGGCGGCAGCCUUCGGUGGUGCGAUAGCGCCAACGUUCUCAACUAUGACACGCAAAACGCGUGCUCCGUUGAAUGGAGUGUAUCAUG | -3.16
GGAUCUUCUCGAGCUAACAACAAAGACAAAUCUGCCACAAAGCUUGAUAGCAUCUUCGGAUGCAGAGGCGGCAGCCUUCGGUGGCGCGAUAGCGCCAACGUUCUCAACUAUGACACGCAAAACGCGUGCUCCGUUGAAUGGAGUUUAUCAUG | -1.33
GGAUCUUCUCGACCUAACAAAAAAGACAAAUCUGCCACAAAGCUUGAGAGCAUCUUCGCAGGCAGAGGCGGCAGCCUUUGGUGACGCGAUAGCGCCAACGUUCUCAACUAUGACACGCAAAACGCGUGCUCAGUUGAAUGGAGUUUAUCAUG | -4.17
GGAUCUUCUCGACCUAACAAAAAAGACAAAUCUGCCACAAAGCUUGAGAGCAUCUUCGGAUGCAGAGGCGGCAGCCUUCGGUGGCGCGAUAGUGCCAACGUUCUCAACUAUGACACGCAAAACGCGUGCUCCGAUGAAUGGAGUUUAUCAUG | -3.08
GGAUCUUCUCGACCUAACAAAAAAGACAAAUCUGCCACAAAGCUUGAGAGCAUCUUCGGAUGCAGAGGCGGCAGCCUUCGGUGGCGCGAUAGCGCCAACGUUCUCAACUAUGACACGCAAAACGAGUGCUCCGUUCAAUGGAGUCCAUCAUG | -3.59
GGAUCUUCUCGACCUAACAAAAAAGACAAAUCUGCCACAAAGCUUGAGAGGAUGUUCGGAUGCAGAGGCGGCAGUCUUCGGUUGCGCGAUAGCGCCAACGUUCUCAACUAUGACACGCAAAACGCGUGCUCCGUUGAAUGGAGUUUAUCAUG | ≤ -4.2
GGAUCUUCUCGACCUAACAAAAAAGACAAAUCUGCCACAAAGCUUGAGAGCAUCUUCUGAUGCAGAGGCGGCAGCCUUCGGUGGCGCGAUAGCUUCAACGUUCUCAACUAUGACACGCAAAACGCGUGCUCCGUUGAAUGGGGGUUAUCAUG | -4.05
GGAUCUUCUCGACCUAACAAAAAAGACAAAUCUGCCACAAAGCUUGAGAGCAUCUUCGGAUGCAGAGGCGGCAGCCUUCGGUGGCGCGAUAGAGCCAACGUUCUCAACUAUGACACGCAAAACGCGUGCUCCGUUGAAUGGAGUUUAUCAUG | -2.64
